Laboratory results from article doi:10.1101/2021.07.28.454137.
Like-named read-outs stand apart in the source and are kept apart here.

Experiments:
[1] = target: human mitochondrial Lon protease homolog (LonP1), wild-type, amino acids 125 to 959 (human) (UniProt P36776); test: cryo-EM structure
[2] = target: human mitochondrial Lon protease homolog (LonP1), wild-type, amino acids 125 to 959 (human) (UniProt P36776); test: cryo-EM structure; remark: listed apart in the source
[3] = target: human LonP1 T803V mutant, amino acids 125 to 959 (human) (UniProt P36776)

Substance	stoichiometry N [1]	stoichiometry N [2]	ATPase activity relative to wild-type LonP1 [3] [%]
human mitochondrial Lon protease homolog (LonP1), wild-type, amino acids 125 to 959 (from UniProt P36776 125-959) (enzyme)	6	6	–
human LonP1 T803V mutant, amino acids 125 to 959 (from UniProt P36776 125-959) (enzyme)	–	–	50
